Columns and labels:
[1] = target: T1, LctMutA
T1 chain: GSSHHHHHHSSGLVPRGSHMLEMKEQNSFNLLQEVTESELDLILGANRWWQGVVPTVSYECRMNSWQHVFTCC

[2] = target: T2, His6-LctA modified by LctM
T2 chain: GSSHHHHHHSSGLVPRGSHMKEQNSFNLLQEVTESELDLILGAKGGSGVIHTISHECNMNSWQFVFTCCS

[3] = target: T3, His6-LctA
T3 chain: T2 chain

B1: GST-Lpd (protein)
chain: MKIVLQNNEQDCLLACYSMILGYFGRDVAIHELYSGEMIPPDGLSVSYLKNINMKHQVSMHVYKTDKKNSPNKIFYPKMLPVIIQWNDNHFVVVTKIYRKNVTLIDPAIGKVKYNYNDFMKKFSGYIITLSPNSSFTKKKRISEIIFPLK
For B1, the “removal of the leader peptide” value [1] was “the protease domain of LctT can remove the leaser peptide and the His-tag”, the “proteolytic cleavage of the leader (MALDI-TOF MS; sensitivity of indicator strain L. lactis 117)” value [2] was “Both unmodified and modified His-LctA were substrates for GST-Lpd” and the “proteolytic cleavage of the leader (MALDI-TOF MS)” value [3] was “Both unmodified and modified His-LctA were substrates for GST-Lpd”.

B2: Endoproteinase Lys-C from Lysobacter enzymogenes (protein)
chain: GVSGSCNIDVVCPEGNGHRDVIRSVAAYSKQGTMWCTGSLVNNSANDKKMYFLTANHCGMTTAAIASSMVVYWNYQNSTCRAPGSSSSGANGDGSLAQSQTGAVVRATNAASDFTLLELNTAANPAYNLFWAGWDRRDQNFAGATAIHHPNVAEKRISHSTVATEISGYNGATGTSHLHVFWQASGGVTEPGSSGSPIYSPEKRVLGQLHGGPSSCSATGADRSDYYGRVFTSWTGGGTSATRLSDWLDAAGTGAQFIDGLDSTGTPPV
In the case of B2, the “proteolytic cleavage (MALDI-MS)” value [2] is reported as “cleavage of the amide bond between Lys25 and Gly26 and removal of the leader sequence and the His6-tag”.
